US20140087995A1 (published 2014)
Numbered stars: 1 amine (or outer) side, 2 acyl side, 3 side chain; on linkers, the order of the positions; unused ones are H or OH. Bridge positions count the residues as written; N and C are the ends. Side chains are listed from the residue outwards. Ends that are not written are not given here. * marks the point of attachment. C20 diacid = O=C(O)CCCCCCCCCCCCCCCCCCC(=O)*; γGlu = O=C(O)[C@H](CCC(=O)[*:2])N[*:1]

T1: human amylin receptor (human calcitonin receptor co-expressed with RAMP-3; amylin 3(a) receptor) (human, UniProt P30988 25-474; O60896 24-148, limits assumed)
T1 construct: whole, on cells; Used as cell membranes prepared from Amylin 3(a)/CRE-luc BHK cells (Assay V), not as intact cells; also called hAmylin-R; hAmylinR
T1 sequence (looked up) 1: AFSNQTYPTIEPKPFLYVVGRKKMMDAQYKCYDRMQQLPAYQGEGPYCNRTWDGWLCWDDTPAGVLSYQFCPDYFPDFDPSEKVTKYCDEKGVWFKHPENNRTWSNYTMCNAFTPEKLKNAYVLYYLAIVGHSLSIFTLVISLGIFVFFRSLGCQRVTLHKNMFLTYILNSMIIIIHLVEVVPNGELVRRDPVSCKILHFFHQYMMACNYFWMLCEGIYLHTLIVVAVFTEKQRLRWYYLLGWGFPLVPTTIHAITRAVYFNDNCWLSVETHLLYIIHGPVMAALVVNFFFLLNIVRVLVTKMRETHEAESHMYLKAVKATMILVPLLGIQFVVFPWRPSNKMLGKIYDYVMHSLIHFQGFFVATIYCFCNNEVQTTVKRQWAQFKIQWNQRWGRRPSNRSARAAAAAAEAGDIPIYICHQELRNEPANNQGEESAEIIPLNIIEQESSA
T1 sequence (looked up) 2: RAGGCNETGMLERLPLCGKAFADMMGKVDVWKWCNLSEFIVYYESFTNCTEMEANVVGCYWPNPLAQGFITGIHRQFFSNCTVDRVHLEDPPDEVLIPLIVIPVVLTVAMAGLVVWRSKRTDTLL

T2: human calcitonin receptor (human, UniProt P30988 25-474)
T2 construct: whole, on cells; Used as cell membranes prepared from the transfected BHK cells (Assay VII), not as intact cells; also called hCTR; hCT
T2 sequence (looked up): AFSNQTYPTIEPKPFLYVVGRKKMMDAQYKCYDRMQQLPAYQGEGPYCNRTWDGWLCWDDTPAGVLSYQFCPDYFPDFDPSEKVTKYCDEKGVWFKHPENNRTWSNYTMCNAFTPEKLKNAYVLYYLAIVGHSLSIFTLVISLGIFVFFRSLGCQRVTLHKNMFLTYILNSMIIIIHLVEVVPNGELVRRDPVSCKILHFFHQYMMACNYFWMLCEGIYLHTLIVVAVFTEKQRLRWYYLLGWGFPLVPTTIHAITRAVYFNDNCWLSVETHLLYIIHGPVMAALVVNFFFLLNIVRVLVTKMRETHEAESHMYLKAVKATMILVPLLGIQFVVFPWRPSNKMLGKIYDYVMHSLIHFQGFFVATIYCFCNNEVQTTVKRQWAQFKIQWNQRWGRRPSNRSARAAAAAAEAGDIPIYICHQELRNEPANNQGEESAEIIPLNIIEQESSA


Experiments:
[1] = biological target: T1, human amylin receptor (human calcitonin …); experiment: ratio of hCTR binding IC50 to hAmylin-R binding IC50 (reference: human calcitonin receptor)
Outline: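 Competition binding by SPA uses membrane preparations (35 ng/μL final) in pH 7.4 Hepes buffer with 1 mM CaCl2 and 5 mM MgCl₂. Incubation lasts 120 min at 25° C, and IC₅₀ comes from one-site fitting.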

[2] = biological target: T2, human calcitonin receptor; experiment: SPA competition against 125I-calcitonin, membranes with human calcitonin receptor (Assay VII)
Outline: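 BHK hCTR membranes 35 ng/μL + SPA beads 0.05 mg/well; buffer 50 mM Hepes pH 7.4, 1 mM CaCl2, 5 mM MgCl₂, 0.1% OA, 0.02% Tween20. 120 min, 25° C., shaking. Scintillation count; IC50 by one-site binding competition.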

Ratio hCT/hAmylin binding [1]	IC50 [2] [µM]	Binder
45.2	0.0314	K([γGlu-C20 diacid])CNTATCATQRLANFLRHSSPNFGAIPSSTNVGSHTY-NH2 (disulfide 2-7; N-terminus assumed; SMILES CC[C@H](C)[C@H](NC(=O)[C@H](C)NC(=O)CNC(=O)[C@H](Cc1ccccc1)NC(=O)[C@H](CC(N)=O)NC(=O)[C@@H]1CCCN1C(=O)[C@H](CO)NC(=O)[C@H](CO)NC(=O)[C@H](Cc1c[nH]cn1)NC(=O)[C@H](CCCNC(=N)N)NC(=O)[C@H](CC(C)C)NC(=O)[C@H](Cc1ccccc1)NC(=O)[C@H](CC(N)=O)NC(=O)[C@H](C)NC(=O)[C@H](CC(C)C)NC(=O)[C@H](CCCNC(=N)N)NC(=O)[C@H](CCC(N)=O)NC(=O)[C@@H](NC(=O)[C@H](C)NC(=O)[C@@H]1CSSC[C@H](NC(=O)[C@@H](N)CCCCNC(=O)CC[C@H](NC(=O)CCCCCCCCCCCCCCCCCCC(=O)O)C(=O)O)C(=O)N[C@@H](CC(N)=O)C(=O)N[C@@H]([C@@H](C)O)C(=O)N[C@@H](C)C(=O)N[C@@H]([C@@H](C)O)C(=O)N1)[C@@H](C)O)C(=O)N1CCC[C@H]1C(=O)N[C@@H](CO)C(=O)N[C@@H](CO)C(=O)N[C@H](C(=O)N[C@@H](CC(N)=O)C(=O)N[C@H](C(=O)NCC(=O)N[C@@H](CO)C(=O)N[C@@H](Cc1c[nH]cn1)C(=O)N[C@H](C(=O)N[C@@H](Cc1ccc(O)cc1)C(N)=O)[C@@H](C)O)C(C)C)[C@@H](C)O, also called compound 60) [N^ε1-[(4S)-4-carboxy-4-(19-carboxynonadecanoylamino)butanoyl]-[Arg17,Pro21,Pro27,His35]-h-amylin]
45.5	0.018	K([γGlu-C20 diacid])CNTATCATQRLAHFLRHSSPNFGAIPSSTNVGSHTY-NH2 (disulfide 2-7; N-terminus assumed; SMILES CC[C@H](C)[C@H](NC(=O)[C@H](C)NC(=O)CNC(=O)[C@H](Cc1ccccc1)NC(=O)[C@H](CC(N)=O)NC(=O)[C@@H]1CCCN1C(=O)[C@H](CO)NC(=O)[C@H](CO)NC(=O)[C@H](Cc1c[nH]cn1)NC(=O)[C@H](CCCNC(=N)N)NC(=O)[C@H](CC(C)C)NC(=O)[C@H](Cc1ccccc1)NC(=O)[C@H](Cc1c[nH]cn1)NC(=O)[C@H](C)NC(=O)[C@H](CC(C)C)NC(=O)[C@H](CCCNC(=N)N)NC(=O)[C@H](CCC(N)=O)NC(=O)[C@@H](NC(=O)[C@H](C)NC(=O)[C@@H]1CSSC[C@H](NC(=O)[C@@H](N)CCCCNC(=O)CC[C@H](NC(=O)CCCCCCCCCCCCCCCCCCC(=O)O)C(=O)O)C(=O)N[C@@H](CC(N)=O)C(=O)N[C@@H]([C@@H](C)O)C(=O)N[C@@H](C)C(=O)N[C@@H]([C@@H](C)O)C(=O)N1)[C@@H](C)O)C(=O)N1CCC[C@H]1C(=O)N[C@@H](CO)C(=O)N[C@@H](CO)C(=O)N[C@H](C(=O)N[C@@H](CC(N)=O)C(=O)N[C@H](C(=O)NCC(=O)N[C@@H](CO)C(=O)N[C@@H](Cc1c[nH]cn1)C(=O)N[C@H](C(=O)N[C@@H](Cc1ccc(O)cc1)C(N)=O)[C@@H](C)O)C(C)C)[C@@H](C)O, also called compound 66)
37.5	0.0311	K([γGlu-C20 diacid])CNTATCATQRLAEFLRHSSPNFGAIPSSTNVGSRTY-NH2 (disulfide 2-7; N-terminus assumed; SMILES CC[C@H](C)[C@H](NC(=O)[C@H](C)NC(=O)CNC(=O)[C@H](Cc1ccccc1)NC(=O)[C@H](CC(N)=O)NC(=O)[C@@H]1CCCN1C(=O)[C@H](CO)NC(=O)[C@H](CO)NC(=O)[C@H](Cc1c[nH]cn1)NC(=O)[C@H](CCCNC(=N)N)NC(=O)[C@H](CC(C)C)NC(=O)[C@H](Cc1ccccc1)NC(=O)[C@H](CCC(=O)O)NC(=O)[C@H](C)NC(=O)[C@H](CC(C)C)NC(=O)[C@H](CCCNC(=N)N)NC(=O)[C@H](CCC(N)=O)NC(=O)[C@@H](NC(=O)[C@H](C)NC(=O)[C@@H]1CSSC[C@H](NC(=O)[C@@H](N)CCCCNC(=O)CC[C@H](NC(=O)CCCCCCCCCCCCCCCCCCC(=O)O)C(=O)O)C(=O)N[C@@H](CC(N)=O)C(=O)N[C@@H]([C@@H](C)O)C(=O)N[C@@H](C)C(=O)N[C@@H]([C@@H](C)O)C(=O)N1)[C@@H](C)O)C(=O)N1CCC[C@H]1C(=O)N[C@@H](CO)C(=O)N[C@@H](CO)C(=O)N[C@H](C(=O)N[C@@H](CC(N)=O)C(=O)N[C@H](C(=O)NCC(=O)N[C@@H](CO)C(=O)N[C@@H](CCCNC(=N)N)C(=O)N[C@H](C(=O)N[C@@H](Cc1ccc(O)cc1)C(N)=O)[C@@H](C)O)C(C)C)[C@@H](C)O, also called compound 51)
51.6	0.00463	K([γGlu-C20 diacid])CNTATCATQRLAHFLRHSSPNFGAIPSSTNVGPNTY-NH2 (disulfide 2-7; N-terminus assumed; SMILES CC[C@H](C)[C@H](NC(=O)[C@H](C)NC(=O)CNC(=O)[C@H](Cc1ccccc1)NC(=O)[C@H](CC(N)=O)NC(=O)[C@@H]1CCCN1C(=O)[C@H](CO)NC(=O)[C@H](CO)NC(=O)[C@H](Cc1c[nH]cn1)NC(=O)[C@H](CCCNC(=N)N)NC(=O)[C@H](CC(C)C)NC(=O)[C@H](Cc1ccccc1)NC(=O)[C@H](Cc1c[nH]cn1)NC(=O)[C@H](C)NC(=O)[C@H](CC(C)C)NC(=O)[C@H](CCCNC(=N)N)NC(=O)[C@H](CCC(N)=O)NC(=O)[C@@H](NC(=O)[C@H](C)NC(=O)[C@@H]1CSSC[C@H](NC(=O)[C@@H](N)CCCCNC(=O)CC[C@H](NC(=O)CCCCCCCCCCCCCCCCCCC(=O)O)C(=O)O)C(=O)N[C@@H](CC(N)=O)C(=O)N[C@@H]([C@@H](C)O)C(=O)N[C@@H](C)C(=O)N[C@@H]([C@@H](C)O)C(=O)N1)[C@@H](C)O)C(=O)N1CCC[C@H]1C(=O)N[C@@H](CO)C(=O)N[C@@H](CO)C(=O)N[C@H](C(=O)N[C@@H](CC(N)=O)C(=O)N[C@H](C(=O)NCC(=O)N1CCC[C@H]1C(=O)N[C@@H](CC(N)=O)C(=O)N[C@H](C(=O)N[C@@H](Cc1ccc(O)cc1)C(N)=O)[C@@H](C)O)C(C)C)[C@@H](C)O, also called compound 67)
63	0.00617	K([γGlu-C20 diacid])CNTATCATQRLAHFLRHSSPNFGAIPSSTPVGSNTY-NH2 (disulfide 2-7; N-terminus assumed; SMILES CC[C@H](C)[C@H](NC(=O)[C@H](C)NC(=O)CNC(=O)[C@H](Cc1ccccc1)NC(=O)[C@H](CC(N)=O)NC(=O)[C@@H]1CCCN1C(=O)[C@H](CO)NC(=O)[C@H](CO)NC(=O)[C@H](Cc1c[nH]cn1)NC(=O)[C@H](CCCNC(=N)N)NC(=O)[C@H](CC(C)C)NC(=O)[C@H](Cc1ccccc1)NC(=O)[C@H](Cc1c[nH]cn1)NC(=O)[C@H](C)NC(=O)[C@H](CC(C)C)NC(=O)[C@H](CCCNC(=N)N)NC(=O)[C@H](CCC(N)=O)NC(=O)[C@@H](NC(=O)[C@H](C)NC(=O)[C@@H]1CSSC[C@H](NC(=O)[C@@H](N)CCCCNC(=O)CC[C@H](NC(=O)CCCCCCCCCCCCCCCCCCC(=O)O)C(=O)O)C(=O)N[C@@H](CC(N)=O)C(=O)N[C@@H]([C@@H](C)O)C(=O)N[C@@H](C)C(=O)N[C@@H]([C@@H](C)O)C(=O)N1)[C@@H](C)O)C(=O)N1CCC[C@H]1C(=O)N[C@@H](CO)C(=O)N[C@@H](CO)C(=O)N[C@H](C(=O)N1CCC[C@H]1C(=O)N[C@H](C(=O)NCC(=O)N[C@@H](CO)C(=O)N[C@@H](CC(N)=O)C(=O)N[C@H](C(=O)N[C@@H](Cc1ccc(O)cc1)C(N)=O)[C@@H](C)O)C(C)C)[C@@H](C)O, also called compound 62)
